{"source": "the supplement of paper PMC10567573", "parents": {"B1": {"name": "MLL5 (parent)", "chain": "DCMGIDRQHIPDTYLCERCQPRNL"}}, "data": [{"variants_of": "B1", "assay": "protein stability index of a GFP-peptide fusion (GPS, HEK-293T) (PSI 1-6); higher = more stable", "conditions": "c terminus: a fixed tail appended", "values": [{"variant": "DCMGIDRQHIPDTYCCERCQPRNL", "note": "[L15C]", "protein stability index": 3.71}, {"variant": "DCMGIDRQHIPDTYDCERCQPRNL", "note": "[L15D]", "protein stability index": 3.69}, {"variant": "DCMGIDRQHIPDTYECERCQPRNL", "note": "[L15E]", "protein stability index": 4.66}, {"variant": "DCMGIDRQHIPDTYRCERCQPRNL", "note": "[L15R]", "protein stability index": 3.61}, {"variant": "DCMGIDRQHIPDTYACERCQPRNL", "note": "[L15A]", "protein stability index": 3.61}, {"variant": "DCMGIDRQHIPDTYVCERCQPRNL", "note": "[L15V]", "protein stability index": 3.28}, {"variant": "DCMGIDRQHIPDTYGCERCQPRNL", "note": "[L15G]", "protein stability index": 3.43}, {"variant": "DCMGIDRQHIPDTYTCERCQPRNL", "note": "[L15T]", "protein stability index": 3.73}, {"variant": "DCMGIDRQHIPDTYWCERCQPRNL", "note": "[L15W]", "protein stability index": 2.81}, {"variant": "DCMGIDRQHIPDTYQCERCQPRNL", "note": "[L15Q]", "protein stability index": 2.99}, {"variant": "DCMGIDRQHIPDTYSCERCQPRNL", "note": "[L15S]", "protein stability index": 3.76}, {"variant": "DCMGIDRQHIPDTYHCERCQPRNL", "note": "[L15H]", "protein stability index": 3.32}, {"variant": "DCMGIDRQHIPDTYICERCQPRNL", "note": "[L15I]", "protein stability index": 3.61}, {"variant": "DCMGIDRQHIPDTYFCERCQPRNL", "note": "[L15F]", "protein stability index": 2}, {"variant": "DCMGIDRQHIPDTYYCERCQPRNL", "note": "[L15Y]", "protein stability index": 2.28}, {"variant": "DCMGIDRQHIPDTYPCERCQPRNL", "note": "[L15P]", "protein stability index": 3.15}, {"variant": "DCMGIDRQHIPDTYKCERCQPRNL", "note": "[L15K]", "protein stability index": 4}, {"variant": "DCMGIDRQHIPDTYNCERCQPRNL", "note": "[L15N]", "protein stability index": 3.8}, {"variant": "DCMGIDRQHIPDTYMCERCQPRNL", "note": "[L15M]", "protein stability index": 2.95}, {"variant": "DCMGIDRQHIPDKYLCERCQPRNL", "note": "[T13K]", "protein stability index": 3.24}, {"variant": "DCMGIDRQHIPDHYLCERCQPRNL", "note": "[T13H]", "protein stability index": 3.36}, {"variant": "DCMGIDRQHIPDQYLCERCQPRNL", "note": "[T13Q]", "protein stability index": 3.07}, {"variant": "DCMGIDRQHIPDAYLCERCQPRNL", "note": "[T13A]", "protein stability index": 3.59}, {"variant": "DCMGIDRQHIPDWYLCERCQPRNL", "note": "[T13W]", "protein stability index": 2.7}, {"variant": "DCMGIDRQHIPDLYLCERCQPRNL", "note": "[T13L]", "protein stability index": 2.04}, {"variant": "DCMGIDRQHIPDFYLCERCQPRNL", "note": "[T13F]", "protein stability index": 2.55}, {"variant": "DCMGIDRQHIPDGYLCERCQPRNL", "note": "[T13G]", "protein stability index": 3.31}, {"variant": "DCMGIDRQHIPDRYLCERCQPRNL", "note": "[T13R]", "protein stability index": 3.63}, {"variant": "DCMGIDRQHIPDCYLCERCQPRNL", "note": "[T13C]", "protein stability index": 2.17}, {"variant": "DCMGIDRQHIPDYYLCERCQPRNL", "note": "[T13Y]", "protein stability index": 2.15}, {"variant": "DCMGIDRQHIPDVYLCERCQPRNL", "note": "[T13V]", "protein stability index": 3.34}, {"variant": "DCMGIDRQHIPDDYLCERCQPRNL", "note": "[T13D]", "protein stability index": 3.54}, {"variant": "DCMGIDRQHIPDIYLCERCQPRNL", "note": "[T13I]", "protein stability index": 2.26}, {"variant": "DCMGIDRQHIPDNYLCERCQPRNL", "note": "[T13N]", "protein stability index": 2.91}, {"variant": "DCMGIDRQHIPDMYLCERCQPRNL", "note": "[T13M]", "protein stability index": 2.89}, {"variant": "DCMGIDRQHIPDSYLCERCQPRNL", "note": "[T13S]", "protein stability index": 3.66}, {"variant": "DCMGIDRQHIPDPYLCERCQPRNL", "note": "[T13P]", "protein stability index": 3.33}, {"variant": "DCMGIDRQHIPDEYLCERCQPRNL", "note": "[T13E]", "protein stability index": 3.71}, {"variant": "DCMGIDRQHIPMTYLCERCQPRNL", "note": "[D12M]", "protein stability index": 3.1}, {"variant": "DCMGIDRQHIPETYLCERCQPRNL", "note": "[D12E]", "protein stability index": 2.81}, {"variant": "DCMGIDRQHIPTTYLCERCQPRNL", "note": "[D12T]", "protein stability index": 2.81}, {"variant": "DCMGIDRQHIPVTYLCERCQPRNL", "note": "[D12V]", "protein stability index": 1.69}, {"variant": "DCMGIDRQHIPCTYLCERCQPRNL", "note": "[D12C]", "protein stability index": 2.67}, {"variant": "DCMGIDRQHIPKTYLCERCQPRNL", "note": "[D12K]", "protein stability index": 1.96}, {"variant": "DCMGIDRQHIPHTYLCERCQPRNL", "note": "[D12H]", "protein stability index": 2.48}, {"variant": "DCMGIDRQHIPGTYLCERCQPRNL", "note": "[D12G]", "protein stability index": 2.63}, {"variant": "DCMGIDRQHIPRTYLCERCQPRNL", "note": "[D12R]", "protein stability index": 2.86}, {"variant": "DCMGIDRQHIPFTYLCERCQPRNL", "note": "[D12F]", "protein stability index": 2.64}, {"variant": "DCMGIDRQHIPNTYLCERCQPRNL", "note": "[D12N]", "protein stability index": 2.38}, {"variant": "DCMGIDRQHIPYTYLCERCQPRNL", "note": "[D12Y]", "protein stability index": 2.1}, {"variant": "DCMGIDRQHIPITYLCERCQPRNL", "note": "[D12I]", "protein stability index": 2.51}, {"variant": "DCMGIDRQHIPATYLCERCQPRNL", "note": "[D12A]", "protein stability index": 2.01}, {"variant": "DCMGIDRQHIPLTYLCERCQPRNL", "note": "[D12L]", "protein stability index": 1.93}, {"variant": "DCMGIDRQHIPPTYLCERCQPRNL", "note": "[D12P]", "protein stability index": 3.19}, {"variant": "DCMGIDRQHIPSTYLCERCQPRNL", "note": "[D12S]", "protein stability index": 2.38}, {"variant": "DCMGIDRQHIPQTYLCERCQPRNL", "note": "[D12Q]", "protein stability index": 2.67}, {"variant": "DCMGIDRQHCPDTYLCERCQPRNL", "note": "[I10C]", "protein stability index": 3.62}, {"variant": "DCMGIDRQHPPDTYLCERCQPRNL", "note": "[I10P]", "protein stability index": 2.97}, {"variant": "DCMGIDRQHDPDTYLCERCQPRNL", "note": "[I10D]", "protein stability index": 3.56}, {"variant": "DCMGIDRQHLPDTYLCERCQPRNL", "note": "[I10L]", "protein stability index": 3.02}, {"variant": "DCMGIDRQHVPDTYLCERCQPRNL", "note": "[I10V]", "protein stability index": 2.45}, {"variant": "DCMGIDRQHMPDTYLCERCQPRNL", "note": "[I10M]", "protein stability index": 3.9}, {"variant": "DCMGIDRQHQPDTYLCERCQPRNL", "note": "[I10Q]", "protein stability index": 3.42}, {"variant": "DCMGIDRQHAPDTYLCERCQPRNL", "note": "[I10A]", "protein stability index": 2.92}, {"variant": "DCMGIDRQHKPDTYLCERCQPRNL", "note": "[I10K]", "protein stability index": 3.04}, {"variant": "DCMGIDRQHGPDTYLCERCQPRNL", "note": "[I10G]", "protein stability index": 3.13}, {"variant": "DCMGIDRQHHPDTYLCERCQPRNL", "note": "[I10H]", "protein stability index": 3.49}, {"variant": "DCMGIDRQHNPDTYLCERCQPRNL", "note": "[I10N]", "protein stability index": 3.3}, {"variant": "DCMGIDRQHYPDTYLCERCQPRNL", "note": "[I10Y]", "protein stability index": 3.49}, {"variant": "DCMGIDRQHSPDTYLCERCQPRNL", "note": "[I10S]", "protein stability index": 3.14}, {"variant": "DCMGIDRQHWPDTYLCERCQPRNL", "note": "[I10W]", "protein stability index": 2.37}, {"variant": "DCMGIDRQHRPDTYLCERCQPRNL", "note": "[I10R]", "protein stability index": 3}, {"variant": "DCMGIDRQHTPDTYLCERCQPRNL", "note": "[I10T]", "protein stability index": 2.48}, {"variant": "DCMGIDRQHFPDTYLCERCQPRNL", "note": "[I10F]", "protein stability index": 2.54}, {"variant": "DCMGIDRQHEPDTYLCERCQPRNL", "note": "[I10E]", "protein stability index": 3.72}, {"variant": "DCMGIDRQNIPDTYLCERCQPRNL", "note": "[H9N]", "protein stability index": 2.65}, {"variant": "DCMGIDRQGIPDTYLCERCQPRNL", "note": "[H9G]", "protein stability index": 2.77}, {"variant": "DCMGIDRQTIPDTYLCERCQPRNL", "note": "[H9T]", "protein stability index": 3.11}, {"variant": "DCMGIDRQFIPDTYLCERCQPRNL", "note": "[H9F]", "protein stability index": 2.04}, {"variant": "DCMGIDRQMIPDTYLCERCQPRNL", "note": "[H9M]", "protein stability index": 2.16}, {"variant": "DCMGIDRQEIPDTYLCERCQPRNL", "note": "[H9E]", "protein stability index": 2.86}, {"variant": "DCMGIDRQYIPDTYLCERCQPRNL", "note": "[H9Y]", "protein stability index": 2.01}, {"variant": "DCMGIDRQRIPDTYLCERCQPRNL", "note": "[H9R]", "protein stability index": 2.64}, {"variant": "DCMGIDRQQIPDTYLCERCQPRNL", "note": "[H9Q]", "protein stability index": 3.04}, {"variant": "DCMGIDRQWIPDTYLCERCQPRNL", "note": "[H9W]", "protein stability index": 2.23}, {"variant": "DCMGIDRQLIPDTYLCERCQPRNL", "note": "[H9L]", "protein stability index": 2.93}, {"variant": "DCMGIDRQIIPDTYLCERCQPRNL", "note": "[H9I]", "protein stability index": 2.24}, {"variant": "DCMGIDRQPIPDTYLCERCQPRNL", "note": "[H9P]", "protein stability index": 2.12}, {"variant": "DCMGIDRQKIPDTYLCERCQPRNL", "note": "[H9K]", "protein stability index": 3.58}, {"variant": "DCMGIDRQVIPDTYLCERCQPRNL", "note": "[H9V]", "protein stability index": 2.63}, {"variant": "DCMGIDRQSIPDTYLCERCQPRNL", "note": "[H9S]", "protein stability index": 2.98}, {"variant": "DCMGIDRQAIPDTYLCERCQPRNL", "note": "[H9A]", "protein stability index": 2.63}, {"variant": "DCMGIDRQDIPDTYLCERCQPRNL", "note": "[H9D]", "protein stability index": 2.56}, {"variant": "DCMGIDRQCIPDTYLCERCQPRNL", "note": "[H9C]", "protein stability index": 3.29}]}]}
